Data published in article PMC3477023, “Microbial β-glucosidases from cow rumen metagenome enhance the saccharification of lignocellulose in combination with commercial cellulase cocktail” (Biotechnology for Biofuels, 2012).

Key:
Test in all cases: purified protein
Conditions in all cases: 40°C, pH 5.6, 50 mM sodium acetate
purified protein [1] = substrate: O=[N+]([O-])c1ccc(O[C@@H]2O[C@H](CO)[C@@H](O)[C@H](O)[C@H]2O)cc1
purified protein [2] = substrate: O=[N+]([O-])c1ccc(O[C@@H]2O[C@H](CO)[C@@H](O[C@@H]3O[C@H](CO)[C@@H](O)[C@H](O)[C@H]3O)[C@H](O)[C@H]2O)cc1; format: biochemical, uncultured bacterium LAB25
purified protein [3] = substrate: O=[N+]([O-])c1ccc(O[C@@H]2O[C@H](CO)[C@@H](O[C@@H]3O[C@H](CO)[C@@H](O)[C@H](O)[C@H]3O)[C@H](O)[C@H]2O)cc1; format: biochemical, uncultured bacterium SRF2
purified protein [4] = substrate: O=[N+]([O-])c1ccc(O[C@@H]2O[C@H](CO)[C@@H](O[C@@H]3O[C@H](CO)[C@@H](O)[C@H](O)[C@H]3O)[C@H](O)[C@H]2O)cc1; format: biochemical, uncultured bacterium LAB20

Row | Protein | Km (purified protein [1]) | kcat (purified protein [1]) | kcat/Km (purified protein [1]) | Km (purified protein [2]) | kcat (purified protein [2]) | kcat/Km (purified protein [2]) | Km (purified protein [3]) | kcat (purified protein [3]) | kcat/Km (purified protein [3]) | Km (purified protein [4]) | kcat (purified protein [4]) | kcat/Km (purified protein [4])
1 | LAB25g2 (uncultured bacterium LAB25) (protein, gene 2340 bp (779 residues calculated), full ORF from ATG with native signal region in pET-41 Ek/LIC, E. coli BL21(DE3), Ni-NTA, tags removed by enterokinase) MKKLLTICFVATTFGMTMNAQPKLSADNIDEVLKAMTLEEKAKLLVGGANNFFSANAVVGGEATLVAGAAGTTPEIARLGIPATVLTDGPAGVRINPTRRGTDQTFYATAFPIGSCLASTWNTELVGQVGQAIGNETKEYRCDVILGPGMNLHRNPLCGRNFEYYSEDPFLTGKIAAAYINGVQKEDVGVSAKHFAVNSQETDRTSVDERLSQRAAREIYLRGFEIAVRESNPWTIMASYNIINGTHAMGNRDLLTSILRDDWGYKGIVMTDWIGIRQGLTTISEVQAGNDLMEPGQPAQVQEIIDGVKNGKLAIADVDRNVRRMLEYIVKTPSFRKYPASNKPDFTAHAAITRQSANEGIVLLKNNGTLPWKNIKSVALFGENSYDFLSGGTGSGCVHPPYVVDMLEGLKNAGIKSSETLTDIYRKYIAYARVKFQAERHPAKWFQTEAMGQQKYPEISLSPIAVEKEVRGADAAIITIGRQAGEGIDRDIETEFNLIPEERQLIFDVCQAFHAAGKPVVVIINSGSVIETASWSGYPDAILCAWQPGMEGGNSIADLLTGKVNPSGKLTMTWPIAATDHASTKNFPGALDDYSLMQMLGNGQPIPGHAYTNHEEDIYVGYRFFDTFKRDVAYPFGYGLSYTTFEYSKPVVKAKGQTVEVSITVKNSGSVSGKEVAQVYVAAPKGRLEKPAQELKAFAKTRELQPGESQTLTMTIPVRNLASFDEANSQWLTEAGTYTFRIGANSRDIRCTAEAKLAEYTEQTSNALAPKQKLNLLKQ | 450 ± 60 µM | 0.41 s⁻¹ | 920 M⁻¹ s⁻¹ | 390 ± 30 µM | 0.17 ± 0.36 s⁻¹ | 438 M⁻¹ s⁻¹ |  |  |  |  |  | 
2 | SRF2g14 (uncultured bacterium SRF2) (protein, gene 2361 bp (786 residues calculated), full ORF from ATG with native signal region in pET-41 Ek/LIC, E. coli BL21(DE3), Ni-NTA, tags removed by enterokinase) MKKTLFFAFGMATLMMGCTSADKVTKNTLNQEEVMNRLSLEDKAHFVIGVGMAGFSGDDAVIGATKNLVPGAAGTTYPLDSLGIPAVVLADGPAGLRIDATREGDSATYYCTHFPIGTLLASTWNQKLVEEVGQAIGEEVKEYGADVLLAPALNIMRNPLCGRNFEYYSEDPVVAGKTASAYITGVQKNDVGTSIKHFAANNQETNRMNTDAHISQRALREIYLKGFEIAIKESKPWTVMTSYNYINGVYTSESKDLVQTILRDEWGYEGTVMTDWFGGKDGAKQMWAGNDMLQPGKAEQFDSIVAGVKSGKLDEADLDRNIQRILNLVEKSPRFQGYQYSNKPDLKAHAAVTRQSAAEGMVLMKNNEVLPLKENVKNVALYGCTSYDFIAGGTGSGNVNHAYVVSLLDGLKNGGYNVSDELKSAYEKYIADCKEARKKEIEEMAKKDKQAAMLARFMPGTLPAEKQFSSEELAKQADASDLAVITIGRISGEFLDRKAADFNLNDSEMKLIQQVCEVYHKVGKQVVVLLNIGGVIETASWKELPDAILCAWQAGQEGGNSVVDVLSGKQSPSGKFTMTWPVKFTDAYSSKNFPIDEDPKIDMMNQGQKGNVKNVDYADYEEDIYVGYRYFDSFDVPVSYPFGFGLSYTTFEYSDAKISQKNDIYDVTVTVKNTGKFEGKEVVELYISAPDNKAANKPSKELKAFAKTRSLKPGESETLTLSVTAPELASFDEAASAWVVAEGEYQFLVGASSQDIKATLTANAKSFQIKVNDVMKPQVQMNLLKR | 34 ± 3 µM | 0.37 s⁻¹ | 10800 M⁻¹ s⁻¹ |  |  |  | 480 ± 54 µM | 0.19 ± 0.36 s⁻¹ | 416 M⁻¹ s⁻¹ |  |  | 
3 | LAB20g4 (uncultured bacterium LAB20) (protein, gene 2295 bp (764 residues calculated), full ORF from ATG with native signal region in pET-41 Ek/LIC, E. coli BL21(DE3), Ni-NTA, tags removed by enterokinase) MKKIMLLSATVLALAGCKGDPQLGKDSVDKVLKAMTLEEKVHFVIGTGMAGFGGESAVVGATKNIVPGAAGTTYPIERLGIPSIVLADGPAGLRIDPTREGDENTYYCTHFPIGTLLASTWNQELVESVGKAMGEEVHEYGADVYLAPALNIHRHPLNGRNFEYYSEDPVVAGKTAAAYVRGVQSNDVGTSIKHFAYNNQETNRTGNNAVISPRAQREIYLKGFEITVKESDPWTVMSSYNKINGTYTSQSRDLITTVLRDEWGFKGLVMTDWFGGDNGAEQIAAGNDMLQPGTDLQYQQIMDAIKDGSLSEDELNICVRRCLELVARSPKAKGYAYSNKPDLKAHAAVTRQSALEGMVLLENNGVLPLKDVKNVAVFGCTSFDFIAGGTGSGNVNRAYTVSLLDGLKNAGFNVDESNKEATLKHIADEDAAFKASLTDQLSAFYPTPRPSELVPSAAELAASARANDVAIITFGRNSGEFFDRTSADFSLSAKEKELLAKVTAAFHAKGKKVVVVLNVGGVIETASWKSVPDAILLAWQAGQEGGNSVTDILTGAKSPSGKLPMTFPVNLMDHASSANFPIDSDTGVYFTNRREDVGQKDVDVTKYEEGIYVGYRWFDKQNLPVSYPFGYGLSYTTFEYSAPAVANDGKTVTAKVTVKNTGSVAGKEAVQLYVSAPAGTLDKPVKELKAYGKTKELAPGESQELTLTFPTSELASFDEEASAWKVDAGTYTFQFGASSRDVRCTATAEAAASETPANRVLLMK | 30 ± 3 µM | 0.88 s⁻¹ | 29500 M⁻¹ s⁻¹ |  |  |  |  |  |  | 1470 ± 130 µM | 0.12 ± 0.2 s⁻¹ | 82.7 M⁻¹ s⁻¹
4 | SRF2g18 (uncultured bacterium SRF2) (protein, gene 2343 bp (780 residues calculated), full ORF from ATG with native signal region in pET-41 Ek/LIC, E. coli BL21(DE3), Ni-NTA, tags removed by enterokinase) MRKSIHQISLVILAVVAMCGYSLRMKAQQLKAENIDEVVKAMTLEEKCHMVLGRGMHFNDEAKFPGTAGSTFSIARLGVPETYCADSQQGLRMNATRAWDHNDYYPTDFVASMTLASTWDREAAFKVGQGIGNEVREFGLDWILSPAMNLIRNPLCGRNHEYYSEDPYLSGTIAAGYVNGVQSEGTAACPKHFVANNQETNRNNNVSQVSQRALREIYLKAFEIMVKESNPWTIMTSYNKLNGPYAVQNHDLLTTIVRNEWGWKGMYVSDWNAGDDAVAAMLAGNDMLQPGQDKQYQAILEAAQSGKLPMEVIDANVKRILEYVVKTHNFKGYKYNNEPDLKAHAKVVREVGADGIVLLKNSGVLPLVGKRVALFGCTSYDWISGGSGFGGTSVGHYTVSLIEGMRSVGYEIYKPLIAAYTQHIAAEEKRLFPNGRPAFSLMPPARADEKQFTADELNAAIEGSDVAIISLGRKSGEAADRSESDFYLKDGEAQLIKAVSDAYHAKGKQVVVLLDICSPIDVASWQNQVDALVCTWQGGQESGFSVADVLSGKVNPSGKLPMTFQIKYGDAYADKNFPANVDDKTLGAMFMWGYDKDNTPKERQLQANIDFTNYEEDIYVGYRYFDSFSKPVAYPFGFGLSYTTFAYENLSVSETDGVFTVKVDVKNTGNKAGRNVVELFVAAPNSKQLNKPEKELRNYAKTSLLKPGQTETVIMLVKTEDLASFNEKASAWKTDAGVYTFMICSSANQIEVQTSAKVKAWTKKVNNVMKPKLKLNLLKR | 1730 ± 4 µM | 0.27 s⁻¹ | 159 M⁻¹ s⁻¹ |  |  |  | 480 ± 72 µM | 0.11 ± 0.22 s⁻¹ | 232 M⁻¹ s⁻¹ |  |  | 
